According to article PMC7181697 (2020):

Key:
Test in all cases: ITC
REV7^K129A = REV7^K129A (human, UniProt Q9UI95 1-211, K129A)
REV7^Y63A = REV7^Y63A (human, UniProt Q9UI95 1-211, Y63A)
REV7^W171A = REV7^W171A (human, UniProt Q9UI95 1-211, W171A)
REV7^WT-REV3(1871–2021) = REV7^WT-REV3(1871–2021) (human, UniProt Q9UI95 1-211; O60673 1871-2021)
Sequence of REV7^WT-REV3(1871–2021) (Q9UI95 whole entry, chain 1 of 2): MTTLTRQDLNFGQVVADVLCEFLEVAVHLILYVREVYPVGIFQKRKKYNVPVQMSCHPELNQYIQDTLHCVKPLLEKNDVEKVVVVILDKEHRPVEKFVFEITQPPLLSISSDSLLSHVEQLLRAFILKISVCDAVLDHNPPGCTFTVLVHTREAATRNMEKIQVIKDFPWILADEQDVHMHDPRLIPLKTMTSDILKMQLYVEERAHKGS
Sequence of REV7^WT-REV3(1871–2021) (O60673 1871-2021, chain 2 of 2): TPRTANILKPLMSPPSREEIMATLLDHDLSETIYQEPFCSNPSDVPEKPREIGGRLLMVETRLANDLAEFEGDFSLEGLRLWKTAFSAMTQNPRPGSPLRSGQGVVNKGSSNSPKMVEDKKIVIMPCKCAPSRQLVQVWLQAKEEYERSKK

Sequence of REV7^K129A (Q9UI95 whole entry K129A): as the sequence (Q9UI95 whole entry, chain 1 of 2) above, with K129A counted along it
Sequence of REV7^W171A (Q9UI95 whole entry W171A): as the sequence (Q9UI95 whole entry, chain 1 of 2) above, with W171A counted along it
Sequence of REV7^Y63A (Q9UI95 whole entry Y63A): as the sequence (Q9UI95 whole entry, chain 1 of 2) above, with Y63A counted along it

| Kd (REV7^K129A) | Kd (REV7^Y63A) | Kd (REV7^W171A) | Kd (REV7^WT-REV3(1871–2021)) | Binder |
| --- | --- | --- | --- | --- |
| 7.3 nM |  |  |  | REV3(1847-1906) (domain or fragment) MLTPTPDSSPRSTSSPSQSKNGSFTPRTANILKPLMSPPSREEIMATLLDHDLSETIYQE |
| 4.8 nM | 160 nM | 170 nM |  | SHLD3(1–82) with C-terminal His6-tag (domain or fragment) MTTEVILHYRPCESDPTQLPKIAEKAIQDFPTRPLSRFIPWFPYDGSKLPLRPKRSPPVISEEAAEDVKQYLTISEHDAKSH |
|  |  |  | 1600 nM | cREV1 CTD (chimeric REV1 CTD: POL κ RIR fused to the N-terminus of REV1 CTD) (other) SHKKSFFDKKRSERKWGLSSLQSDPAGCVRPPAPNLAGAVEFNDVKTLLREWITTISDPMEEDILQVVKYCTDLIEEKDLEKLDLVIKYMKRLMQQSVESVWNMAFDFILDNVQVVLQQTYGSTLKVT |
